Laboratory results as given in US20200240982A1 (GOVERNMENT OF THE UNITED STATES OF AMERICA AS REPRESENTED …, published 2020).

T1: Staphylococcal enterotoxin B (UniProt P01552 28-266)
T1 sequence: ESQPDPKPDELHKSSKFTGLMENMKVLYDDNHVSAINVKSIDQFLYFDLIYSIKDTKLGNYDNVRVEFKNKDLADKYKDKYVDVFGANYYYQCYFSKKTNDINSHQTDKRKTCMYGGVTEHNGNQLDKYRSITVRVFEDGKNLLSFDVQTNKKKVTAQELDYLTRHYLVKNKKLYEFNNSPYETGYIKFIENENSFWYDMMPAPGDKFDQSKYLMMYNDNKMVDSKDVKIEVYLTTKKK

B1: DD7-DD7-SpyTag (VHH)
chain: EVQLVQSGGGSVQAGGSLRLSCAHSSITVPDYTIGWFRRAPGKGGEEVSLISMHGGRSWYAGSVKGRFAISRDSVKNTVYLQMNNLKPEDTDIYYCGGTTFGLAAAPNEYDSWGQGSQVTVSSGGGGSGGGGSGSEVQLVQSGGGSVQAGGSLRLSCAHSSITVPDYTIGWFRRAPGKGGEEVSLISMHGGRSWYAGSVKGRFAISRDSVKNTVYLQMNNLKPEDTDIYYCGGTTFGLAAAPNEYDSWGQGSQVTVSSGGGGSGGGGSGSAHIVMVDAYKPTKAAALEHHHHHH
B2: AcVe anti-SEB sdAb monomer (VHH)
VHH: DVQLVESGGGLVQPGGSLRLTCAASGLIFGSYAMGWFRQAPGKAREFVAAISWSGGDTYADSVKGRFTISRDNAKNTVYLQMNSLEPEDTAVYSCAAVGSKYYISKDAKDYGYWGQGTQVTVSS

Key:
[1] = target: Dengue NS1 protein (serotype not given) (Dengue virus)
[2] = target: T1, Staphylococcal enterotoxin B; assay: MagPlex sandwich fluoroimmunoassay; capture sdAb attached directly by EDC/sNHS

Row | Binder | fold improvement in ability to detect NS1 (against DD7-gs3k) [1] [fold] | binding result [2]
1 | B1 | ~25 | –
2 | B2 | – | binds
